Experimental data: patent US20140162285A1, “Methods of Modulating Vesicular Trafficking” (The General Hospital Corporation, priority 2009, published 2014)
Entries after “also recorded” stand apart in the source; their conditions may differ. Ends that are not written are not given here. * marks the point of attachment. Biotin = O=C1N[C@H]2[C@H](CS[C@H]2CCCCC(=O)*)N1

What was measured:
[1] = target: T1, GST-ARNO(wt) (Homo sapiens, UniProt Q99418); assay: a2N-derived peptide pull-down assay with GST-ARNO(wt); type: binding; design: key to interaction with ARNO (asterisk mark in Table 1): The interacting peptides are indicated in bold with an asterisk (*); conditions: for interaction of a2N-derived peptide with GST-ARNO(wt) in pull-down: Western blot anti-GST, GST-only as control; for interaction with ARNO (asterisk mark in Table 1): biotin-tagged peptides on streptavidin beads
T1 construct: i) 1-400aa, full length ARNO(wt); made in house; host or cells: E. coli BL21(DE3)
T1 sequence (Q99418 1-400): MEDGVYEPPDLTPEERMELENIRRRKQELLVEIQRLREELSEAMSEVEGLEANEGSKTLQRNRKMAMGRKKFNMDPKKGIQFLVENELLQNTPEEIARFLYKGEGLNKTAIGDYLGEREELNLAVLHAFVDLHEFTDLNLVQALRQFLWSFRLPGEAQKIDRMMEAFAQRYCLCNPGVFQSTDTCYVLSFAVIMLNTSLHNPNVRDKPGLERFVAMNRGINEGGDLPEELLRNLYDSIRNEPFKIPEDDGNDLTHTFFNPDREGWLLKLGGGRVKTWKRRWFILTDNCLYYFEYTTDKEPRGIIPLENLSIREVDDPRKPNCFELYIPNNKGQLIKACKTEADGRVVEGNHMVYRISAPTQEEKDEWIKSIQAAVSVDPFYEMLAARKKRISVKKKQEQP
Protocol: FIG. 2A is an image of a Western blot showing the results of an a2N-derived peptide pull-down assay. The indicated a2N-derived peptides were immobilized on streptavidin-beads and incubated with purified recombinant GST-ARNO(wt). Interacting complexes were eluted and analyzed by Western blotting using monoclonal anti-GST antibodies.
FIG. 2B is an image of a Western blot showing the results of a pull-down assay with selected a2N-derived interacting peptides incubated with either GST (negative control) or GST-ARNO(wt). The first two lanes show the patterns obtained when either GST-only (lane 1) or GST-ARNO(wt) (lane 2) were loaded onto the gel.
Peptides were synthesized, purified by HPLC and analyzed by mass spectrometry in the MGH Peptide/Protein Core Facility. All a2N-derived peptides were synthesized with a biotin-tag on the N-terminus for immobilization on streptavidin-agarose beads and with an additional C-terminal cysteine residue for immobilization on beads using sulfhydryl-specific crosslinkers. A peptide corresponding to the PB-domain of ARNO was synthesized containing either a non-phosphorylated or a phosphorylated Ser392 residue. Peptide stock solutions were prepared in DMSO at 5 mM concentration and stored at −20° C. […]

[2] = target: T2, 6His-a2N(wt) (Mus musculus, UniProt P15920); assay: ARNO-derived peptide pull-down with in vitro translated 6His-a2N(wt); type: binding; conditions: 7 nmol biotin-tagged peptide on streptavidin-agarose beads
T2 construct: amino acid residues 1-402 of mouse V-ATPase a2-subunit (a2N1-402); made in house; host or cells: cell-free in vitro translation
T2 sequence (P15920 1-402): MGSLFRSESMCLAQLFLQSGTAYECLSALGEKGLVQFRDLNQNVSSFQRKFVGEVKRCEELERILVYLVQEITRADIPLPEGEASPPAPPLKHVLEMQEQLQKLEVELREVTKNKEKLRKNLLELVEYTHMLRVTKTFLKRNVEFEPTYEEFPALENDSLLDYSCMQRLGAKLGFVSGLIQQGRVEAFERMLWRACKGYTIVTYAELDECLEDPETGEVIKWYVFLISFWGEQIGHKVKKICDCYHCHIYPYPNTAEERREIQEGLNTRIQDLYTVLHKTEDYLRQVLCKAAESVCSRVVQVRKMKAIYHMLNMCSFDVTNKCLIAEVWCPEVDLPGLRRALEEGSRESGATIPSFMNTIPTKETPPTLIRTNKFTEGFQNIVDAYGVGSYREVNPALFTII
Protocol: FIGS. 4B-C are images of Western blots showing (4B) the results of peptide pull-down assays for interaction of a2N with Sec7-PH-linker of ARNO and (4C) phosphorylation-dependent interaction of a2N with ARNO-derived peptide corresponding to the PB-domain of ARNO. Corresponding ARNO-derived peptides were immobilized on streptavidin-beads and incubated with in vitro translated recombinant a2N. Interacting complexes were eluted and analyzed by Western blotting using anti-a2N antibodies.
ARNO-derived peptides, equal amounts (7 nmol) of biotin-tagged synthetic peptides were also immobilized on streptavidin-agarose beads followed by incubation with 10 μl of in vitro translated 6His-a2N(wt) recombinant protein. Pull-down experiments and SDS-PAGE analysis were performed as described above and interacting 6His-a2N/ARNO-derived-peptide complexes were analyzed by Western blotting using polyclonal anti-a2N antibody. All experiments were repeated at least three times with similar results.

[3] = target: T3, GST-only (UniProt P08515 1-218 = GST); assay: peptide pull-down: biotinylated peptide on streptavidin-agarose beads, GST-only in solution, Western blot with anti-GST antibody
T3 construct: Control bait/prey in pull-down assays; also called GST (negative control)
T3 sequence (P08515 whole entry): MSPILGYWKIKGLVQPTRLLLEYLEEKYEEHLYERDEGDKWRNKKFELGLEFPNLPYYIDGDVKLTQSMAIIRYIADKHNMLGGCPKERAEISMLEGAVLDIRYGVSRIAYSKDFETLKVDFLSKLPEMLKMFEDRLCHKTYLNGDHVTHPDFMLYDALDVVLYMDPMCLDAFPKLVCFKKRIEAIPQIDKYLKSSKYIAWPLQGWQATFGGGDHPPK
Protocol: FIGS. 5A-C are a set of three images of Western blots showing the identification of interaction motif of a2N that is involved in specific binding with the Sec7 domain of ARNO. 5A, The catalytic Sec7 domain of ARNO interacts with two a2N-derived peptides, a2N-01 and a2N-03, in pull-down experiments. The peptide pull-down assay was performed with six a2N-derived interaction peptides immobilized on streptavidin-beads and incubated with purified recombinant GST-only or GST-Sec7 domain. Interacting complexes were eluted and analyzed by Western blotting using monoclonal anti-GST antibodies as described below. The loading controls for GST-only (lane 1) or GST-Sec7 (lane 2) are shown. 5B, 5C: Peptide a2N-01 specifically interacts with Sec7 but not PH-domain (5B) or PB-domain (5C) of ARNO. The peptide pull-down assay was performed with peptides a2N-01 and a2N-03 immobilized on streptavidin-beads and incubated with purified recombinant GST-PH domain (5B) or GST-PB domain (5C). Interacting complexes were eluted and analyzed by Western blotting using monoclonal anti-GST antibodies. The loading control of GST-PH-domain (5B) or GST-PB-domain (5C) is shown on the left.
These a2N-derived peptides were immobilized by an N-terminal biotin-tag, which ensured the same efficiency and equivalent binding to streptavidin-agarose beads. Simultaneous pull-down experiments with immobilized peptides were performed using highly purified recombinant GST-only or GST-Sec7-6His as described below. […] To remove unbound peptides, beads were collected by centrifugation and washed in 500 μl ice-cold binding buffer. Next, equal amounts (20 pmoles) of highly purified recombinant GST-only or GST-Sec7-6His were added to the beads containing immobilized peptides and incubated for 2 hours at 4° C. in 500 μl of binding buffer. After washing beads four times in ice-cold binding buffer, the interacting complexes were eluted by boiling in SDS-PAGE sample buffer for 10 min at 95° C., resolved by SDS-PAGE and analyzed by Western blotting using monoclonal anti-GST antibody.

[4] = target: T4, purified 6His-a2N (recombinant a2N protein, a2N1-402, expressed in E. coli and refolded) (mouse, UniProt P15920 1-402); assay: SPR (BIAcore T100), a2N immobilised on CM4 chip, ARNO(wt) as analyte, bivalent analyte fit
T4 construct: Immobilised by amine coupling on a CM4 chip for SPR; also called a2N(wt); a2N-His6(wt)
T4 sequence: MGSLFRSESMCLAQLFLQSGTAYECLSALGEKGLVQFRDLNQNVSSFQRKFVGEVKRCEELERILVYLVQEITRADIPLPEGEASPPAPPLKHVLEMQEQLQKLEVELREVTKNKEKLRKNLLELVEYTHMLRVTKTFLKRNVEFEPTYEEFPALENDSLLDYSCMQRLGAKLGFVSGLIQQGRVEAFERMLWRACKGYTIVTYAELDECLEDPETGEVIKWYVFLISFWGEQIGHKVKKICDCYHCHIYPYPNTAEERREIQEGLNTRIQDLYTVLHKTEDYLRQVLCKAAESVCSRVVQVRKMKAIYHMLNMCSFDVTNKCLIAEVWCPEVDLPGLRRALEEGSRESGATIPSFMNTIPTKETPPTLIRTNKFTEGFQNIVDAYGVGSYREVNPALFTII
Protocol: All reagents, including buffers, sensor chips and the amine coupling kit, were obtained from GE Healthcare. For kinetic analysis of the binding of ARNO(wt) with a2N(wt), purified 6His-a2N (5 μg/ml) in 10 mM sodium acetate (pH 4.0) was immobilized at 80 response units (RU) on a CM4 sensor chip using an amine coupling kit according to the manufacturer's instructions. The same kit was used to perform blank immobilization to create a reference surface on the same chip. Samples of purified GST-ARNO(wt) at concentrations ranging from 0.25-4 μM were injected for 6 min over active and reference surfaces at a flow rate of 30 μl/min in NBS-EP, 1 mM DTT running buffer (10 mM Hepes, pH 7.4, 150 mM NaCl, 3 mM EDTA, 0.05% Surfactant P20, 1 mM DTT). For kinetic analysis of the binding of the ARNO Sec7-domain with a2N-01 peptide, neutravidin (10 μg/ml) in 10 mM sodium acetate (pH 5.0) was immobilized at about 1200 RU on two surfaces of a CM4 sensor chip using an amine coupling kit. Following that, biotinylated a2N-01 peptide (50 RU) and amine-PEG₃-biotin (25 RU) were irreversibly captured by neutravidin to create active and a reference surfaces, respectively. Purified Sec7-6His recombinant protein was injected for 3.5 min over active and reference surfaces at concentrations ranging from 0.05-1 μM and a flow rate of 100 μl/min in NBS-EP, 1 mM DTT running buffer. Dissociation of the complexes was monitored for 10 min, and then the regeneration of the sensor surfaces was performed using 0.05% SDS with 1-min injection in the running buffer at a 20 μl/min flow rate. BIAcore™ T100 Evaluation software was used to calculate the association and dissociation rate constants (kₒₙ and koff) with a 1:1 fitting model. The dissociation constant (KD) was determined from the kₒₙ/koff values. To estimate affinity of interaction the corresponding free energy of binding ΔGbind=RTlnKD was calculated as previously described (Marles et al., Mol Cell 14 (2004) 813-823).
Specific concentration-dependent responses were obtained for both interactions. […]

Bio-NMCSFDVTNKCLIAEVWCP-Cys (NMCSFDVTNKCLIAEVWCPC) [a2N-18, AA 313-331 of a2N]
interaction of a2N-derived peptide with GST-ARNO(wt) in pull-down [1]: specific interaction; also recorded: capable of interaction with ARNO
interaction with ARNO (asterisk mark in Table 1) [1]: Bio-NMCSFDVTNKCLIAEVWCP-Cys *

Sec7/PH-linker: peptide corresponding to the Sec7/PH-linker region (242-261aa) of ARNO, SEQ ID NO:31 (PFKIPEDDGNDLTHTFFNPD)
interaction of ARNO-derived peptide with a2N [2]: reproducibly observed

Bio-KHVLEMQEQLQKLEVELREVTKNKEKLRKNLLELVE-Cys (KHVLEMQEQLQKLEVELREVTKNKEKLRKNLLELVEC) [a2N-06, AA 92-127, predicted CC-domain of a2N]
interaction of a2N-derived peptide with GST-ARNO(wt) in pull-down [1]: did not bind

ARNO375-400: biotinylated non-phosphorylated peptide covering the PB-domain of ARNO plus four PH/PB-linker amino acids, SEQ ID NO:32 (VSVDPFYEMLAARKKRISVKKKQEQP; also: biotinylated, site not given here)
interaction of ARNO-derived peptide with a2N [2]: direct interaction

Bio-GYTIVTYAELDECLEDP-Cys (GYTIVTYAELDECLEDPC) [a2N-11, AA 198-214 of a2N]
interaction of a2N-derived peptide with GST-ARNO(wt) in pull-down [1]: specific interaction; also recorded: capable of interaction with ARNO
interaction with ARNO (asterisk mark in Table 1) [1]: Bio-GYTIVTYAELDECLEDP-Cys *

Bio-YGVGSYREVNPALFTII-Cys (YGVGSYREVNPALFTIIC) [a2N-22, AA 386-402 of a2N]
interaction of a2N-derived peptide with GST-ARNO(wt) in pull-down [1]: specific interaction; also recorded: capable of interaction with ARNO
interaction with ARNO (asterisk mark in Table 1) [1]: Bio-YGVGSYREVNPALFTII-Cys *

Bio-ETGEVIKWYVFLISFW-Cys (ETGEVIKWYVFLISFWC) [a2N-12, AA 215-230 of a2N]
interaction of a2N-derived peptide with GST-ARNO(wt) in pull-down [1]: specific interaction; also recorded: capable of interaction with ARNO
interaction with ARNO (asterisk mark in Table 1) [1]: Bio-ETGEVIKWYVFLISFW-Cys *

B1: a2N-03 (peptide)
peptide: Biotin-VQFRDLNQNVSSFQRC
notes: also called a2N35-49
binding result [3]: no binding

B2: a2N-11 (peptide)
peptide: Biotin-GYTIVTYAELDECLEDPC
modifications: cysteine pairing not given here
notes: also called a2N198-214
binding result [3]: no binding

B3: a2N-12 (peptide)
peptide: Biotin-ETGEVIKWYVFLISFWC
notes: also called a2N215-230
binding result [3]: no binding

B4: a2N-18 (peptide)
peptide: Biotin-NMCSFDVTNKCLIAEVWCPC
modifications: cysteine pairing not given here
notes: also called a2N313-331
binding result [3]: no binding

B5: a2N-22 (peptide)
peptide: Biotin-YGVGSYREVNPALFTIIC
binding result [3]: no binding

B6: GST-ARNO(wt) (other, human, UniProt Q99418 1-400, looked up)
chain: MEDGVYEPPDLTPEERMELENIRRRKQELLVEIQRLREELSEAMSEVEGLEANEGSKTLQRNRKMAMGRKKFNMDPKKGIQFLVENELLQNTPEEIARFLYKGEGLNKTAIGDYLGEREELNLAVLHAFVDLHEFTDLNLVQALRQFLWSFRLPGEAQKIDRMMEAFAQRYCLCNPGVFQSTDTCYVLSFAVIMLNTSLHNPNVRDKPGLERFVAMNRGINEGGDLPEELLRNLYDSIRNEPFKIPEDDGNDLTHTFFNPDREGWLLKLGGGRVKTWKRRWFILTDNCLYYFEYTTDKEPRGIIPLENLSIREVDDPRKPNCFELYIPNNKGQLIKACKTEADGRVVEGNHMVYRISAPTQEEKDEWIKSIQAAVSVDPFYEMLAARKKRISVKKKQEQP
notes: range 1-400; Double-tagged construct (N-terminal GST, C-terminal 6xHis); also called full length ARNO(wt); wild-type ARNO; not shown: N-terminal GST-tag from the pGEX6P-1 vector; C-terminal 6xHis-tag
Kd [4]: 313 nM
koff [4]: 0.0015 s⁻¹
kon [4]: 4770 M⁻¹ s⁻¹
